Source: patent US20240059759A1 (BIGHAT BIOSCIENCES, published 2024)

Key:
SARS-CoV-1 RBD [1] = molecular target: T1, SARS-CoV-1 RBD (SARS-CoV-1, UniProt P59594 306-527)
SARS-CoV-1 RBD [2] = molecular target: T1, SARS-CoV-1 RBD; remark: listed apart in the source

B1: VHH-72(S57G) (VHH)
VHH: QVQLQESGGGLVQAGGSLRLSCAASGRTFSEYAMGWFRQAPGKEREFVATISWSGGGTYYTDSVKGRFTISRDNAKNTVYLQMNSLKPDDTAVYYCAAAGLGTVVSEWDYDYDYWGQGTQVTVSS
With B1 the “Rel. EC50 - ELISA” value (SARS-CoV-1 RBD [1]) was 0.3 relative to WT.

B2: VHH-72 (S57A) (VHH)
VHH: QVQLQESGGGLVQAGGSLRLSCAASGRTFSEYAMGWFRQAPGKEREFVATISWSGGATYYTDSVKGRFTISRDNAKNTVYLQMNSLKPDDTAVYYCAAAGLGTVVSEWDYDYDYWGQGTQVTVSS
For B2, the “Rel. EC50 - ELISA” value (SARS-CoV-1 RBD [1]) was 0.43 relative to WT.

B3: VHH-72 (S57Y) (VHH)
VHH: QVQLQESGGGLVQAGGSLRLSCAASGRTFSEYAMGWFRQAPGKEREFVATISWSGGYTYYTDSVKGRFTISRDNAKNTVYLQMNSLKPDDTAVYYCAAAGLGTVVSEWDYDYDYWGQGTQVTVSS
For B3, the EC50 (SARS-CoV-1 RBD [2]) was > 10 µg/mL.
